1 molecule from publication doi:10.1101/2021.04.24.441265 can be followed below.

As a reminder, the Kd is a measure of binding affinity in units of concentration.

In this series the target is C/EBPβ bZIP domain (mouse, UniProt P28033 221-296). Description: fluorescence polarization. Background: In fluorescence polarisation assays a small probe gives low polarisation when free and higher when bound to something large.
C/EBPβ bZIP domain, sequence (P28033 221-296): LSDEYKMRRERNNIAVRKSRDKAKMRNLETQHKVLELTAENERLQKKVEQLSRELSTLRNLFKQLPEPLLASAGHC

B1: FP_CREBmeth (half-CRE•C/EBP Il36A, methylated) (dsDNA)
DNA 1: CATCTTACGTCACCT
DNA 2: AGGTGACGTAAGATG
modifications: mC at strand 1 position 8 and strand 2 position 7 (CpG, both strands)
In turn, B1 came in with a Kd of 0.1 ± 0.03 µM.
